What was measured:
[1] = target: FITC-labeled human GRK6A C-terminal 22 amino acid peptide, GRK6Act-22 (human); assay: fluorescence polarisation; fluorescence anisotropy, direct saturation binding in solution; recombinant protein titrated to fixed FITC-GRK6Act-22 (0.4–1.0 μM); PBS pH 7.4, 0.1% BSA, 1 mM DTT, 23 °C; quadratic fit
[2] = target: FITC-labeled human GRK6A C-terminal 22 amino acid peptide, GRK6Act-22 (human); assay: fluorescence polarisation; fluorescence anisotropy saturation binding in solution; increasing amounts of recombinant protein added to a fixed concentration of FITC-labeled GRK6Act-22 (0.4-1.0 uM); PBS pH 7.4, 0.1% BSA, 1 mM DTT; 23 °C; 96-well format; quadratic fit

Row | Binder | Kd [1] | Kd [2]
1 | pSer162-PDZ2 (133–300 aa) (domain or fragment, phosphoserine at 162) NENEPREADKSHPEQRELRPRLCTMKKGPSGYGFNLHSDKSKPGQFIRSVDPDSPAEASGLRAQDRIVEVNGVCMEGKQHGDVVSAIRAGGDETKLLVVDRETDEFFKKCRVIPSQEHLNGPLPVPFTNGEIQKENSREALAEAALESPRPALVRSASSDTSEELNSQ | 26.1 µM | –
2 | WT PDZ2 domain (133–300 aa) of NHERF1 (domain or fragment) NENEPREADKSHPEQRELRPRLCTMKKGPSGYGFNLHSDKSKPGQFIRSVDPDSPAEASGLRAQDRIVEVNGVCMEGKQHGDVVSAIRAGGDETKLLVVDRETDEFFKKCRVIPSQEHLNGPLPVPFTNGEIQKENSREALAEAALESPRPALVRSASSDTSEELNSQ | 51.3 µM | –
3 | S162A-PDZ2 (133–300 aa) (domain or fragment) NENEPREADKSHPEQRELRPRLCTMKKGPAGYGFNLHSDKSKPGQFIRSVDPDSPAEASGLRAQDRIVEVNGVCMEGKQHGDVVSAIRAGGDETKLLVVDRETDEFFKKCRVIPSQEHLNGPLPVPFTNGEIQKENSREALAEAALESPRPALVRSASSDTSEELNSQ | 43.4 µM | –
4 | NHERF1 PDZ1 domain (1-140 aa), isolated (domain or fragment) MSADAAAGAPLPRLCCLEKGPNGYGFHLHGEKGKLGQYIRLVEPGSPAEKAGLLAGDRLVEVNGENVEKETHQQVVSRIRAALNAVRLLVVDPETDEQLQKLGVQVREELLRAQEAPGQAEPPAAAEVQGAGNENEPREA | – | 6.6 µM
5 | recombinant full-length NHERF1 (natural protein) MSADAAAGAPLPRLCCLEKGPNGYGFHLHGEKGKLGQYIRLVEPGSPAEKAGLLAGDRLVEVNGENVEKETHQQVVSRIRAALNAVRLLVVDPETDEQLQKLGVQVREELLRAQEAPGQAEPPAAAEVQGAGNENEPREADKSHPEQRELRPRLCTMKKGPSGYGFNLHSDKSKPGQFIRSVDPDSPAEASGLRAQDRIVEVNGVCMEGKQHGDVVSAIRAGGDETKLLVVDRETDEFFKKCRVIPSQEHLNGPLPVPFTNGEIQKENSREALAEAALESPRPALVRSASSDTSEELNSQDSPPKQDSTAPSSTSSSDPILDFNISLAMAKERAHQKRSSKRAPQMDWSKKNELFSNL | 5.3 µM | –
6 | recombinant N1P1-GAGA (natural protein) MSADAAAGAPLPRLCCLEKGPNGAGAHLHGEKGKLGQYIRLVEPGSPAEKAGLLAGDRLVEVNGENVEKETHQQVVSRIRAALNAVRLLVVDPETDEQLQKLGVQVREELLRAQEAPGQAEPPAAAEVQGAGNENEPREADKSHPEQRELRPRLCTMKKGPSGYGFNLHSDKSKPGQFIRSVDPDSPAEASGLRAQDRIVEVNGVCMEGKQHGDVVSAIRAGGDETKLLVVDRETDEFFKKCRVIPSQEHLNGPLPVPFTNGEIQKENSREALAEAALESPRPALVRSASSDTSEELNSQDSPPKQDSTAPSSTSSSDPILDFNISLAMAKERAHQKRSSKRAPQMDWSKKNELFSNL | > 100 µM | –
7 | recombinant N1P2-GAGA (natural protein) MSADAAAGAPLPRLCCLEKGPNGYGFHLHGEKGKLGQYIRLVEPGSPAEKAGLLAGDRLVEVNGENVEKETHQQVVSRIRAALNAVRLLVVDPETDEQLQKLGVQVREELLRAQEAPGQAEPPAAAEVQGAGNENEPREADKSHPEQRELRPRLCTMKKGPSGAGANLHSDKSKPGQFIRSVDPDSPAEASGLRAQDRIVEVNGVCMEGKQHGDVVSAIRAGGDETKLLVVDRETDEFFKKCRVIPSQEHLNGPLPVPFTNGEIQKENSREALAEAALESPRPALVRSASSDTSEELNSQDSPPKQDSTAPSSTSSSDPILDFNISLAMAKERAHQKRSSKRAPQMDWSKKNELFSNL | 3.6 µM | –
